Earlier results on 1 protein are cited in article PMC6425487.

In this data set the target is Cterm (position 6, KEKGLF-----). Briefly: NMR. The conditions noted are these: 150 mM; free peptide in solution.

As to KEKGLF, the pKa is listed as 3.2.
